Experimental data: the supplement of paper PMC10567573
± gives the standard deviation.

Test: protein stability index of a GFP-peptide fusion (GPS, HEK-293T) (PSI 1-6); higher = more stable
[1] = treatment: DMSO, c terminus: a fixed tail appended
[2] = treatment: MLN4924 1 uM, 8 h, c terminus: a fixed tail appended
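Note: 24-mer peptide tiles fused after GFP, lentivirally expressed, FACS-sorted into six equal bins by GFP/DsRed ratio, decoded by Illumina sequencing, PSI is the read-weighted mean bin number.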

Sequence | protein stability index [1] | protein stability index [2] | protein stability index (treatment: DMSO, c terminus: native) | protein stability index (treatment: MLN4924 1 uM, 8 h, c terminus: native)
QVKLYDIEQQQIRNALENIRKEMK [CRYL1] | 3.14 ± 0.65 | 3.47 ± 0.29 | – | –
QVKSRQNKTNKNSVSSCDQEHQSA [SMOC2] | 5.1 ± 0.32 | 5.34 ± 0.16 | – | –
RAALISRRHLQFWKSHLRNVQRPL [RHOBTB2] | 2.56 ± 0.13 | 2.56 ± 0.22 | – | –
RAALTYTSLEITILTSQPGKEVVK [M1AP] | 2.32 ± 0.19 | 2.49 ± 0.34 | – | –
RAIMAHMTVEEIYKDRQKFSEQVF [FLOT1] | 2.52 ± 0.32 | 2.74 ± 0.3 | – | –
RAVLGGLSQTDPRAGGGGGGDYGL [PPTC7] | 4.01 ± 0.84 | 3.85 ± 1.5 | – | –
RCFWLGMEGLETAEGSNSESSDDD [SDE2] | 5.22 ± 0.42 | 5.09 ± 0.3 | – | –
RDRDGRITVAELREAVPALLGEPL [CABP4] | 3.78 ± 0.23 | 3.95 ± 0.35 | – | –
REAATKHSKASLPTGEGSISHEEQ [CHCHD6] | 5.3 ± 0.24 | 5.34 ± 0.3 | – | –
RELNDRLAVYIDKVRSLETENSAL [LMNB1] | 3.33 ± 0.24 | 3.04 ± 0.34 | – | –
REQLQAEASERFAAGYIQCMHEVH [HES6] | 3.62 ± 0.37 | 3.77 ± 0.22 | – | –
RERADIGGLMARPEYREWNPELIK [FAM107A] | 4.16 ± 0.12 | 3.8 ± 0.18 | – | –
RESRILFSTWNLDHIIEKKRTIIP [DFFB] | 2.35 ± 0.22 | 2.52 ± 0.22 | – | –
REVDLNGDGTVDFDEFVMMLSRH [CABP4] | – | – | 4 ± 0.17 | 4.23 ± 0.28
REVEQWFATQTEELNKQVVSSSEQ [KRT33B] | 4.98 ± 0.23 | 4.87 ± 0.17 | – | –
REWRCCPGHSGVSCEEVAASSASL [EMID1] | 3.74 ± 0.089 | 3.55 ± 0.31 | – | –
RFNKLGLDHLSLGEEPVPHQQVEE [NEK8] | 4.91 ± 0.22 | 4.89 ± 0.26 | – | –
RGLRYYYDKNIIHKTAGKRYVYRF [ETS1] | 2.32 ± 0.2 | 2.46 ± 0.18 | – | –
RGQEPARADQLCQQELRELRRELE [PRPH] | 4.48 ± 0.36 | 4.53 ± 0.5 | – | –
RGRYGPPSRRSENRVVVSGLPPSG [SRSF1] | 4.08 ± 0.14 | 4.16 ± 0.17 | – | –
RGVDVSLQGKDAWLPLHYAAWQGH [RIPK4] | 2.58 ± 0.42 | 2.45 ± 0.29 | – | –
RIKEVEHMTRHLEESEKAMQERVQ [LRRC45] | 5 ± 0.22 | 4.99 ± 0.21 | – | –
RKDFSELRSAGVEQLMYIKEDLII [FAM50A] | 2.24 ± 0.21 | 2.13 ± 0.34 | – | –

Sequence | protein stability index [1] | protein stability index [2] | protein stability index (treatment: DMSO, c terminus: native) | protein stability index (treatment: MLN4924 1 uM, 8 h, c terminus: native)
RKLFEVESVTHHDYRMELAQAGTP [SPAG8] | 3.64 ± 0.33 | 3.57 ± 0.21 | – | –
RKSVRYTRQKKNLPDSPLRFDGLP [TRIM15] | 3.59 ± 0.19 | 3.66 ± 0.12 | – | –
RLEAARLSLEEELSRVKAAALSER [LRRC45] | 3.71 ± 0.21 | 4.04 ± 0.39 | – | –
RLFLDGEEEKEWAFEESKIDEHHF [AASDHPPT] | 4.37 ± 0.26 | 4.42 ± 0.21 | – | –
RLHNLYSTPRCAQQAALPRLSRRM [CBY2] | 2.28 ± 0.31 | 2.55 ± 0.4 | – | –
RLKKQLRAAQLQHSEKMAQYLEEE [CCDC6] | 4.06 ± 0.29 | 4.11 ± 0.26 | – | –
RLRKCYEVGMVKCGSRRERCGYRL [ESR2] | 2.54 ± 0.4 | 2.43 ± 0.29 | – | –
RLVKEGRFVPSNPIGILTTSYCEL [PPTC7] | 2.39 ± 0.21 | 2.12 ± 0.47 | – | –
RNLLVENIIDIYKQESTRPEKKSD [TRIM55] | 4.42 ± 0.51 | 4.73 ± 0.11 | – | –
RNQGNFSVVGTVLAATQAEKAVAN [ZC2HC1C] | 4.28 ± 0.15 | 4.24 ± 0.42 | – | –
RNSGIIGGKYLGRTKVVKPYSTVD [EFHC1] | 2.91 ± 0.26 | 3.46 ± 0.17 | – | –
RPEEEEDELAHRCSSFMAPPVTDL [CPOX] | 5.05 ± 0.26 | 5.03 ± 0.18 | – | –
RPELPPVCRARPRACSHLIRLMQR [RIPK4] | 2.52 ± 0.26 | 2.49 ± 0.31 | – | –
RPLQVNTADHRIYSYVVSRPQPRG [FAF2] | 3.27 ± 0.43 | 3.49 ± 0.2 | – | –
RQITSPVSGINGDIRAKKIASIAD [HNF4A] | 4.1 ± 0.25 | 4.13 ± 0.2 | – | –
RQVEKRRNSGPVVEKLKQMQEFFG [MMP1] | 3.04 ± 0.57 | 3.07 ± 0.14 | – | –
RQVPGSDPACYEFLWGPRALIETS [MAGEA6] | 2.62 ± 0.56 | 2.85 ± 0.35 | – | –
RRLLEGEDAHLTQYKKEPVTTRQV [KRT17] | 4.56 ± 0.25 | 4.66 ± 0.18 | – | –
RRSFLIEHQRSHTGERPHQCIECG [ZSCAN9] | 3.3 ± 0.39 | 3.8 ± 0.35 | – | –
RRSIRYGREVELKPYIAAHFDVLP [PTPRD] | 2.5 ± 0.41 | 2.46 ± 0.43 | – | –
RSHENKLRQLTAELAEHRCHPVER [PSD2] | 3.84 ± 0.18 | 4.02 ± 0.14 | – | –
RSLLLKYARTPTLDPDTMHARLRL [TRIM14] | 2.45 ± 0.35 | 2.37 ± 0.44 | – | –
RTEIISRSWFPSAPGSASSSKVSG [YJU2B] | 3.94 ± 0.13 | 3.97 ± 0.15 | – | –

Sequence | protein stability index [1] | protein stability index [2] | protein stability index (treatment: DMSO, c terminus: native) | protein stability index (treatment: MLN4924 1 uM, 8 h, c terminus: native)
RTLPAFQVPYPPRQLLRDFQSRLP [P3H4] | 2.76 ± 0.2 | 2.92 ± 0.54 | – | –
RTVNALEIELQAQHNLRYSLENTL [KRT33B] | 2.31 ± 0.25 | 2.29 ± 0.22 | – | –
RVAEVSRVRVELQEQNGRLQAELA [LRRC45] | 4.11 ± 0.3 | 4.19 ± 0.13 | – | –
RVNEKEIVRLRTIGELLAPAAPFD [WSB1] | 3.44 ± 0.2 | 3.5 ± 0.21 | – | –
RVWLKRDSGQYWPSIYHTMASPCS [WDFY1] | 2.06 ± 0.27 | 2.16 ± 0.21 | – | –
RYAPLSFRNPMMSKLRNYRKDLAK [VTI1B] | 2.76 ± 0.23 | 2.74 ± 0.18 | – | –
SAAPGHPQDGSYPRQADHDDHECC [KCNA1] | 5.39 ± 0.4 | 5.6 ± 0.1 | – | –
SAASGARFPLDSAQDPDVGTNTVS [PCDHGC5] | 5.39 ± 0.12 | 5.2 ± 0.31 | – | –
SAEKCGPPPPIDNGDITSFLLSVY [CFHR2] | 2.4 ± 0.16 | 2.33 ± 0.27 | – | –
SAETGSPRLTMHYPCLEKPRIWSL [IRX6] | 2.4 ± 0.1 | 2.22 ± 0.43 | – | –
SAEWFITAVGAILAGGLCVGIYAT [ACSBG2] | 3.53 ± 0.57 | 3.18 ± 0.091 | – | –
SAIQALRSSVSRVFDCLKDGMRNK [MED27] | 2.7 ± 0.33 | 2.49 ± 0.28 | – | –
SALTDRTSRAPSTYTYTSRPRALP [RSPH3] | 4.01 ± 0.26 | 3.7 ± 0.29 | – | –
SAPPITPECRQVLKTSRKDVKDKE [CHGB] | 5.26 ± 0.25 | 5.41 ± 0.22 | – | –
SAVQYFQFYGYLSQQQNMMQDYVR [CARM1] | 2.6 ± 0.72 | 3.35 ± 0.64 | – | –
SCQEVLRKGCLRFQLPERGSRLCL [DFFB] | 2.27 ± 0.48 | 2.4 ± 0.29 | – | –
SCYKGHREIARYLLEQGAQVNRRS [FEM1A] | 2.93 ± 0.14 | 3.11 ± 0.48 | – | –
SDPEISDVDEDEPGGLVGSADVVS [PPFIA4] | 5.54 ± 0.34 | 5.35 ± 0.45 | – | –
SDSAPRNKISRFQAPISAPEYTYG [MFF] | 3.59 ± 0.71 | 3.56 ± 0.21 | – | –
SDVLIGDILVLLGASLYAISNVCE [SLC35F2] | 2.79 ± 0.28 | 3.36 ± 0.67 | – | –
SEKAANDDHSVRVAREDVRESCPP [CPXM2] | 5.49 ± 0.22 | 5.44 ± 0.061 | – | –
SELERESKVVVPPLPGKAFLRQLP [SNX3] | 3.67 ± 0.18 | 3.86 ± 0.59 | – | –
SEMKKCSDYESIEVPDSYTGPRLS [PPEF2] | 4.58 ± 0.35 | 4.53 ± 0.11 | – | –

Sequence | protein stability index [1] | protein stability index [2] | protein stability index (treatment: DMSO, c terminus: native) | protein stability index (treatment: MLN4924 1 uM, 8 h, c terminus: native)
SEWQRKLEAAEALLTLRNSAQAPP [DMRTC1] | 4.45 ± 0.55 | 4.63 ± 0.26 | – | –
SFRELLTFFCTNATIHGAIRLVCS [SCNN1D] | 2.85 ± 0.36 | 2.99 ± 0.39 | – | –
SFVDKLLDLMPRLMTSKPAEVVKI [INTS4] | 2.73 ± 0.64 | 2.61 ± 0.63 | – | –
SFVVLLYILDNETNFVVQVSVFIG [CLPTM1] | 3.15 ± 0.41 | 3.39 ± 0.56 | – | –
SGGQTSWDSGCLAPPSTRTSHSLP [PLEKHN1] | 4.1 ± 0.068 | 3.98 ± 0.21 | – | –
SGMTEVERTYSANCSDFLESKGCF [SPATS1] | 3.62 ± 0.24 | 3.62 ± 0.43 | – | –
SGPAASEHSHRSHHSLASSLRSHH [DVL3] | 3.92 ± 0.16 | 3.91 ± 0.33 | – | –
SGSGGTVAPATMGSARSHASSRAS [ZBTB22] | 4.77 ± 0.18 | 4.68 ± 0.24 | – | –
SGSGKSGGYGFGRGRASGFAGSMF [KRT71] | 2.8 ± 0.24 | 2.69 ± 0.41 | – | –
SIESIKWMIEEKATITSRGSSLSG [LURAP1L] | 3.1 ± 0.2 | 3.39 ± 0.41 | – | –
SIIECDMNVDFDAPLGYKEPERQV [UFD1] | 4.27 ± 0.22 | 4.31 ± 0.18 | – | –
SKARRKKIMIIICCVILGIVIAST [STX1A] | 2.69 ± 0.23 | 2.67 ± 0.33 | – | –
SKLLLSGTADGADLRTVDPETQAR [ANKRD17] | 5.08 ± 0.35 | 5.13 ± 0.26 | – | –
SLASASPPLSGRSTPKLTSRSAAQ [PPFIA4] | 4.5 ± 0.31 | 4.6 ± 0.14 | – | –
SLDESVIYGPGNLSTNNNTLRDHF [SLC2A12] | 3.63 ± 0.31 | 3.6 ± 0.27 | – | –
SLHDHDGSSGASDQDTLAPLPHPG [DVL3] | 5.33 ± 0.25 | 5.19 ± 0.33 | – | –
SLKRHLKTHTGEKPHRCHNCGKSF [ZNF449] | 2.91 ± 0.56 | 2.97 ± 0.15 | – | –
SLNGVYPRMNEVYTRLGEMNNAVR [CEP70] | 2.55 ± 0.21 | 3.08 ± 0.31 | – | –
SLREYNDFLEEVEEIVFNLTNNVD [MNAT1] | 2.6 ± 0.47 | 3.13 ± 0.44 | – | –
SNLLKAGFIRHTVNKITFSEQCYY [DVL3] | 2.3 ± 0.39 | 2.39 ± 0.3 | – | –
